The subject of experiment [1] is C57BL/6J male mice fed high fat diet. The experiment can be described thus: Suppression of decrease in body temperature in mouse continuously taking in high fat diet. Conditions: in high fat diet for 26 weeks, measured at 34-week-old, compared to high fat diet control group. The format is in vivo. The procedure: Seven-week-old C57BL/6J male mice (CLEA Japan, Inc.) were transferred (room temperature: 23° C., humidity: 55±10%, light period: 7:00 to 19:00) and were fed with food and water ad libitum. The mice were acclimated using CE-2 (CLEA Japan, Inc.) as food for 1 week and were then grouped such that the body weights of each group were equivalent to each other and were fed with a normal diet containing 5% lipid (normal diet group), high fat diet containing 30% lipid (triacylglycerol) (high fat diet group), high fat diet containing 0.4% 4-hydroxybenzoic acid (2-bromobenzylidene) hydrazide (4H2BH, produced by the method described in Ling, et al., J. Med. Chem. 44: 3141-9, 2001) (4H2BH addition group), or high fat diet containing diacylglycerol (JP-A-2006-342084) instead of 30% triacylglycerol (DAG substitution group) for 26 weeks (34-week-old). During the breeding period, the body weight was measured once a week, and the food intake amount was measured twice a week. During the breeding period, the intake of the food and water was free. A probe was inserted into the rectum of each mouse at 34-week-old to measure the body temperature (rectal temperature).
(§1) The rectal temperature was measured with a digital rectal thermometer (NS-TC10, manufactured by NeuroScience, Inc.). […]

For experiment [2], the system named is leptin receptor deficient C57BLKS/J male mice (db/db mice). The experiment can be described thus: Chronic decrease in body temperature by GIP and suppression by anti-GIP antibody. The format is in vivo, mouse. The note with it: intraperitoneal every morning for 28 days, measured 1 to 2 hours after administration. The procedure:
Six-week-old leptin receptor deficient C57BLKS/J male mice (db/db mice, Oriental Yeast Co., Ltd.) were transferred (room temperature: 23° C., humidity: 55±10%, light period: 7:00 to 19:00) and were fed with food and water ad libitum. The food was CE-2 (CLEA Japan, Inc.), and the mice were acclimated for 2 weeks under the above-mentioned environment and were then used for testing.
Mouse-derived GIP (manufactured by AnaSpec, Inc.) was dissolved in physiological saline at a concentration of 500 nM to give a GIP solution. Mouse-derived GIP (manufactured by AnaSpec, Inc.) and the anti-active GIP antibody produced in Production Example 1 were dissolved in physiological saline at concentrations of 500 nM and 0.1 mg/mL, respectively, and the resulting solution was incubated for 1 to 2 hours at room temperature to give a GIP-binding anti-GIP antibody solution.
Physiological saline (control group), the GIP solution (5 nmol/kg body weight) (GIP administration group), or the GIP-binding anti-GIP antibody solution (GIP: 5 nmol/kg body weight, anti-GIP antibody: 1 mg/kg body weight) (GIP+anti-GIP antibody administration group) was intraperitoneally administered to mice (8-week-old) every morning (9:00 to 10:00 a.m.). […]
as §1

Experiment [3] deals with C57BLKS/J misty male mice (m/m mice). The experiment can be described thus: Acute decrease in body temperature (rectal temperature) by GIP. The format is in vivo, mouse. The note with it: 5 nmol/kg body weight intraperitoneal, 8-week-old m/m mice. The procedure:
Six-week-old C57BLKS/J misty male mice (m/m mice, Oriental Yeast Co., Ltd.) were transferred (room temperature: 23° C., humidity: 55±10%, light period: 7:00 to 19:00) and were fed with food and water ad libitum. The food was CE-2 (CLEA Japan, Inc.), and the mice were acclimated for 2 weeks under the above-mentioned environment and were then used for testing.
Mouse-derived GIP (manufactured by AnaSpec, Inc.) was dissolved in physiological saline at a concentration of 500 nM to give a GIP solution.
Physiological saline (control group) or the GIP solution (5 nmol/kg body weight) (GIP administration group) was intraperitoneally administered to mice (8-week-old) in the light period (9:00 to 10:00 a.m.). Before the administration and 0.5, 2, 4.5, and 8 hours after the administration, a probe was inserted into the rectum of each mouse to measure the body temperature (rectal temperature).
The rectal temperature was measured with a digital rectal thermometer (NS-TC10, manufactured by NeuroScience, Inc.). According to Jikken Dobutsu Handobukku (Handbook of Experimental Animals) (Yokendo CO. Ltd., published in 1983), each mouse was retained under no anesthesia, and the tip of a probe (RET-3 (19×0.7 mm shaft diameter), manufactured by Physitemp instruments, LLC) was then inserted into the rectum of the mouse by 0.5 to 1 cm to measure for 15 to 30 seconds. […]

In experiment [4] the test system is C57BL/6J male mice (107-week-old). Briefly: Suppression of decrease in body temperature by anti-GIP antibody in aged mouse. The experiment is classed as in vivo. The note with it: aged C57BL/6J mice, 0.5 mg/kg intraperitoneal once a week for 8 weeks. The procedure:
Four-week-old C57BL/6J male mice (CLEA Japan, Inc.) were transferred (room temperature: 23° C., humidity: 55±10%, light period: 7:00 to 19:00) and were fed with food (D12450K, Research Diets, Inc.) and water ad libitum for 111 weeks.
The anti-active GIP antibody produced in Production Example 1 was dissolved in physiological saline at a concentration of 0.05 mg/mL to give an anti-GIP antibody solution.
Physiological saline (control group) or the anti-GIP antibody solution (0.5 mg/kg body weight) (anti-GIP antibody administration group) was intraperitoneally administered to C57BL/6J mice (107-week-old) once a week (9:00 to 10:00 a.m.). The administration period was 8 weeks, and the probe was inserted into the rectum of each mouse chronologically (at 2 to 4 weeks intervals) to measure the body temperature (rectal temperature).
The rectal temperature was measured with a digital rectal thermometer (NS-TC10, manufactured by NeuroScience, Inc.). According to Jikken Dobutsu Handobukku (Handbook of Experimental Animals) (Yokendo CO. Ltd., published in 1983), each mouse was retained under no anesthesia, and the tip of a probe (RET-3 (19×0.7 mm shaft diameter), manufactured by Physitemp instruments, LLC) was then inserted into the rectum of the mouse by 0.5 to 1 cm to measure for 15 to 30 seconds.
The analysis results were shown as the average value (Ave.)±standard error (SE). […]

For another experiment, the target named is T1, GIP(3-42) (inactive GIP).
T1 peptide: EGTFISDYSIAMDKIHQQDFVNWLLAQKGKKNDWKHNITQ
Briefly: sandwich ELISA; anti-total GIP monoclonal antibody as capture, biotinylated anti-active GIP antibody at 1 ug/mL as detector. The procedure: (§2) The reactivity between the monoclonal antibody prepared in Production Example 1 and active GIP was confirmed by ELISA. The amino group of the anti-active GIP monoclonal antibody was biotinylated with NH₂ group biotinylation kit (manufactured by Dojindo Laboratories). ELISA was performed using the produced biotinylated anti-active GIP monoclonal antibody at 1 μg/mL instead of a detection antibody, GIP detection antibody (biotinylated anti-total GIP monoclonal antibody), included in Human (total) GIP ELISA kit (manufactured by EMD Millipore Corporation). A […] dilution series of GIP(1-42) or GIP(3-42) was prepared in 6 steps (8.2 to 2000 pg/mL) with a 2000 pg/mL solution as the highest concentration. By using an anti-total GIP monoclonal antibody (included in Human GIP (total) ELISA kit manufactured by EMD Millipore Corporation) as a capture antibody, the biotinylated anti-active GIP monoclonal antibody as a detection antibody, and a peroxidase-streptavidin conjugate for detection, sandwich ELISA was conducted to prepare a calibration curve with GIP concentration on the X-axis and 450 nm-590 nm absorbance on the Y-axis (FIG. 1).
For orientation: An ELISA detects its analyte on a solid surface through an enzyme-linked reagent.

A further experiment addresses T2, GIP(1-42) (Homo sapiens, UniProt P09681).
T2 sequence (P09681 52-93): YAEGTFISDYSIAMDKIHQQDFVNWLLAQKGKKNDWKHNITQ
The experiment can be described thus: Reactivity with active GIP by sandwich ELISA. Conditions: biotinylated antibody 1 μg/mL as detection antibody, GIP 8.2 to 2000 pg/mL. The format is binding. The procedure: as §2, with “NH2” for “NH₂”

In experiment [5] the target is T3, PEGylated N-terminus 13 amino acids of inactive GIP (GIP(3-15)) (also: PEGylated, site not given here).
T3 construct: Immobilized for the ELISA; also called antigen (2) for measurement; PEGylated GIP(3-15)
T3 peptide: EGTFISDYSIAMD
Briefly: ELISA on immobilized antigen, hybridoma culture supernatant. The procedure:
(§3) The reaction between the hybridoma culture supernatant and the antigen (1) and (2) for measurement was evaluated by ELISA using immobilized antigen (1) and (2), and hybridomas that are positive for the antigen (1) and negative for the antigen (2) were selected as anti-active GIP monoclonal antibody-producing hybridomas.

Experiment [6] concerns the target T4, PEGylated N-terminus 15 amino acids of active GIP (GIP(1-15)) (also: PEGylated, site not given here).
T4 construct: Immobilized for the ELISA; also called antigen (1) for measurement; PEGylated GIP(1-15)
T4 peptide: YAEGTFISDYSIAMD
The experiment is described as above. The procedure:
as §3

A further experiment deals with T5, GIP(3-42) (Homo sapiens, UniProt P09681).
T5 sequence (P09681 54-93): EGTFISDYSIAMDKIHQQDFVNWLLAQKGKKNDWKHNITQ
Briefly: Cross-reactivity with inactive GIP by sandwich ELISA. The note with it: biotinylated antibody 1 μg/mL as detection antibody, GIP 8.2 to 2000 pg/mL. The experiment is classed as binding. The procedure:
as §2, with “NH2” for “NH₂”

Ends that are not written are not given here.

With `O=C(NN=Cc1ccccc1Br)c1ccc(O)cc1` [4H2BH, 4-hydroxybenzoic acid (2-bromobenzylidene) hydrazide], in experiment [1], the “decrease in body temperature (rectal) due to high fat diet intake” value is “suppressed”.

Turning to “GIP: Mouse-derived GIP (gastric inhibitory polypeptide, manufactured by AnaSpec, Inc.) dissolved in physiological saline at 500 nM (YAEGTFISDYSIAMDKIRQQDFVNWLLAQRGKKSDWKHNITQ)”, the “chronic change in body temperature (rectal) compared to the control group” value in [2] is listed as “chronic decrease in the body temperature was observed”. The “decrease in the body temperature (rectal) compared to the control group” value in experiment [3] (after 2 hours) was 0.83 °C; in [3] (after 4.5 hours), 0.81 °C.

B1: anti-active GIP monoclonal antibody produced by hybridoma 9B9H5-B9 line (Production Example 1) (antibody, V domains shown)
VH: QVQLQQPGAELVKPGASVKLSCKASGYTFTSFWMHWVIQRPGQGLEWIGEMNPSDGRTHFNEKFKTKATLTIDTSSNTAYMELNSLTSEDSAVYYCARRMEDWGQGTLVTVSA
VL: DIKMTQSPSSMYASLGERVTITCKASQDINSYLGWFQQKPGKSPKTLIYGANRLVDGVPSRFSGSGSGQDYSLTISSLEYDDMGIYYCLQYDEFPLTFGAGTKLELKR
notes: in the screening and cloning ELISA it was hybridoma culture supernatant; also called anti-active GIP antibody
With B1, the “body temperature (rectal) compared to the control group and the non-administration group” value in [4] is on record as “significantly high”. Further, the “decrease in the body temperature with aging” value in experiment [4] is given as “suppression of a decrease in the body temperature with aging was observed”. For the same molecule, the figures for the binding result (with GIP(3-42) (inactive GIP); in experiment [5]; in [6]) were “no binding (tested: 2000 pg/mL (highest GIP concentration))”, “no binding” and “binds”, respectively. In addition, in the experiment with GIP(1-42), the “reactivity with GIP(1-42) (450 nm-590 nm absorbance)” value was “capable of specifically detecting GIP(1-42)”. In addition, the “cross-reactivity with GIP(3-42) (450 nm-590 nm absorbance)” value in the experiment with GIP(3-42) is “does not show cross-reactivity with GIP(3-42)”.
